The values that follow come from patent publication US20110135636A1 (SYMPHOGEN A S, published 2011).

Residue numbers refer to the chain shown, from its start.

In assay [1] the target is T1, recombinant human EGFR extracellular domain with 6xHis (human, UniProt P00533 25-645).
T1 construct: In-house produced; also called 6xHis EGFR ECD; soluble human EGFR ECD; not shown: 6xHis tag
Description: SPR competition, competitor 1308. As for the experimental part:
(§1) SPR analysis was performed on a Biacore 3000 machine containing four flow cells. A CM5 Biacore chip was conjugated with 10,000 Resonance units (Ru) polyclonal anti-His antibody to flow cells 1-4 according to the manufacturer's instructions. […] Immediately after antigen injection the maximal binding of the Anti-EGFR mAb without competition was established in each flow cell during a reference run. Briefly 5 μl antibody at a concentration of 40 μg/ml was injected over all flow cells with captured EGFR followed by stripping of the antibody/antigen complex with a low pH acid wash (10 sec. contact time with 10 mM Glycine-HCl, pH2). After the determination of Anti-EGFR antibody maximal binding to each flow cell, a competition run was performed during the same Biacore cycle. Flow cells were first saturated with EGFR ECD antigen followed by injection of different reference antibodies or Anti-EGFR antibodies into separate flow cells using the same antigen saturating conditions as outlined above. This step was immediately followed by a second injection of Anti-EGFR antibody over the flow cell saturated with EGFR antigen and competition antibody to minimize the dissociation of either antigen or blocking antibody. Then the antibody/antigen complexes were stripped off with a low pH acid wash (10 sec. contact time with 10 mM Glycine-HCl, pH 2) and the whole cycle beginning with the reference run was repeated with a new Anti-EGFR antibody. The degree of inhibition of tested Anti-EGFR antibodies were determined by comparing the Ru max value of the individual Anti-EGFR antibody before and after competition by introduction of report points recorded two seconds before and after injection of each sample.

The target in assay [2] is T1, recombinant human EGFR extracellular …. Description: SPR competition, competitor 1449. As for the experimental part:
as §1

Assay [3] deals with T2, Cynomolgus EGFR extracellular domain (Cynomolgus monkey (Macaca fascicularis), UniProt P55245 25-645 (rhesus entry)).
T2 construct: Cloned without signal peptide; also called Cynomolgus rEGFR ECD; Cynomolgus EGFR ECD
Description: ELISA on cynomolgus EGFR ECD (Example 10). Summed up:
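Wells coated overnight at 4 °C with 1 μg/ml EGFR protein, then given serial four-fold antibody dilutions from 1 μg/ml for 1 h at room temperature. Binding detected with streptavidin-HRP and TMB, read at OD 450 nm.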
(An ELISA detects its analyte on a solid surface through an enzyme-linked reagent.)

Assay [4] concerns the target T3, wild type full length EGFR purified from A431 cells (human, UniProt P00533 25-1210).
T3 construct: mature; Bought; coated on ELISA wells; also called full length EGFR receptor antigen; Sigma E3641
Description: competition ELISA, competitor Ab-1. Further details: concentration or dose not given beside the values. As for the experimental part:
(§2) The ELISA was adapted from the descriptions published in Ditzel et al, 1995, The Journal of Immunology, Vol 154, Issue 2 893-906.
(§3) An epitope blocking ELISA was performed by diluting full length EGFR receptor antigen to 0.5 μg/ml in PBS; and coating 50 μl/ELISA well overnight at 4° C. […] Finally wells were washed four times with PBS-T and plates were developed by adding 50 μl/well TMB and read at 620 nm every 5-15-30 min. The degree of inhibition was calculated from the formula: % inhibition=(1−(OD competition/OD no competition (PBS)))×100.

Assay [5] deals with T3, wild type full length EGFR purified …. In words: competition ELISA, competitor Ab-2. Further details: concentration or dose not given beside the values. Here is the method: as §2, §3
The target is the same in assay [6]. In words: competition ELISA, competitor Ab-3. Set-up: concentration or dose not given beside the values. Here is the method:
as §2, §3

Assay [7] shares this target. Description: competition ELISA, competitor Ab-5. Set-up: concentration or dose not given beside the values. As for the experimental part: as §2, §3
The target is the same in assay [8]. Description: competition ELISA, competitor Ab-10. Further details: concentration or dose not given beside the values. Here is the method:
as §2, §3

Assay [9] shares this target. In words: competition ELISA, competitor Ab-11. Further details: concentration or dose not given beside the values. Here is the method:
as §2, §3

The target is the same in assay [10]. In words: competition ELISA, competitor ICR10. Further details: concentration or dose not given beside the values. Here is the method:
as §2, §3

Assay [11] deals with T1, recombinant human EGFR extracellular …. In words: SPR (BIAcore 2000); IgG captured on anti-human Fc, soluble monovalent EGFR ECD injected. Here is the method:
Kinetic analysis of the full length IgG antibodies of the invention was performed on a BIAcore 2000, employing an assay as described in (Canziani, Klakamp, et al. 2004, Anal. Biochem, 325:301-307) allowing measurement of monovalent affinities of whole IgG molecules against soluble antigen. […] The chip surface was regenerated in between cycles by stripping the captured antibody/antigen complexes with a 10 second injection of 100 mM H₃PO₄. […] The association rate constant (ka) and dissociation constant (kd) were evaluated globally from the generated sensograms with the BIA evaluation software 4.1 provided by the manufacturer.
In general terms: In SPR one partner is held on a chip, and binding of the other changes the refractive index at the surface.

Assay [12] addresses T4, EGFRvIII (deletion mutant EGFR) (human, UniProt P00533 25-645, limits assumed).
T4 construct: also called deltaEGFR; rhEGFRvIII
In words: EGFRvIII ELISA (Example 1).

B1: antibody 1030 (antibody, human IgG1, kappa, V domains shown)
VH: EVQLVESGGGLVKPGGSLKLSCAASGFTFSSYALSWVRQTPERRLEWVASISGVGSTYFPDSVKGRFTMSRDNARNILYLQMSSLRSEDTAMYYCARGSDGYFYAMDYWGQGTSVTVSS
VL: DIVLTQSPASLAVSLGQRATISCRASKSVSTSGYSFMHWYQLKPGQPPKLLIYLASNLESGVPARFSGSGSGTDFTLNIHPVEEEDAATYYCQHSREFPLTFGGGTKLEIKR
notes: Chimeric IgG1 kappa
B1: the “% inhibition” value in assay [1] was -12%; in assay [2] it was 4%; in assay [4], 91%; in assay [5], -1%; in assay [6], -35%; in assay [7] it was 92%. Besides, the “% inhibition” value in assay [8] was 92%; in [9], -20%; in assay [10], 12%. Moreover, in assay [3], the binding result is listed as “binds”. Besides, the Kd in assay [11] worked out at 0.0292 µM. In addition, the koff in [11] was found to be 0.00037 s⁻¹. Besides, the kon in assay [11] is 13000 M⁻¹ s⁻¹. The “t1/2” value in assay [11] turned out to be 31.1 min.

B2: antibody 1208 (antibody, human IgG1, kappa, V domains shown)
VH: EVQLVESGGGLVKPGGSLKLSCAASGFAFSSYDMSWVRQTPEKRLEWVAYIGSGDDNTHYPDSVKGRFTISRHNAKNTLYLQMSSLKSEDTAMYYCARQKYGNYGDTMDYWGQGTSVTVSS
VL: DVVMTQTPLSLPVSLGDQASISCRSSQSLVHSNGNTYLHWYLQKPGQSPKLLIYKVSNRFSGVPDRFSGSGSGTDFTLKISRVEAEDLGVYFCSQSTHVPTFGGGTKLEIKR
notes: Chimeric IgG1 kappa; also called clone 1208
As to B2, the “% inhibition” value in assay [1] is 5%; in [4] it was 82%; in assay [5], 20%; in assay [6] it was -10%; in assay [7] it was 84%; in assay [8], 89%. For the same molecule, the “% inhibition” value in assay [9] is -3%; in assay [10], -21%.

B3: antibody 1344 (antibody, human IgG1, kappa, V domains shown)
VH: QVQLKESGPGLVAPSQSLSITCTVSGFSLTIYGVHWVRQPPGKGLEWLGVIWAGGNTNYNSALMSRLSISKDNSKSQVFLKMNSLQTDDTAMYFCARGYGYNLDYWGQGTTLTVSS
VL: DIQMTQTTSSLSASLGDRVTISCSASQGISNYLNWYQQKPDGTVKLLIYYTSSLHSGVPSRFSGSGSGTDYSLTISNLEPEDIATYYCQQYSKLPYTFGGGTKLEIKR
notes: Chimeric IgG1 kappa
In the case of B3, the values for the binding result in [12] and in [3] were “no binding” and “binds”, respectively. Besides, the “% inhibition” value was determined as 73% in assay [1]; 19% in [4]; 14% in [5]; 40% in assay [6]; 28% in assay [7]; 36% in assay [8]. Further, the “% inhibition” value in assay [9] and in assay [10] was 82% throughout.

B4: antibody 1320 (antibody, human IgG1, kappa, V domains shown)
VH: QVQLQQPGAELVKPGASMKLSCKASGYTFTNYWMHWVKQRPGQGLEWIGEINPSNGRTNYNEKFKSKATLTVDKSSSTAYMQLSSLTSEDSGVYYCAKGGNYYDYDWDYWGQGTTLTVSS
VL: B3 VL with G28D, Y50H, S53T, Y96W
notes: Chimeric IgG1 kappa
Turning to B4, the “% inhibition” value is -2% in assay [1]; 50% in assay [2]; 9% in assay [4]; -9% in assay [5]; 0% in assay [6]; 6% in assay [7]. In addition, the “% inhibition” value in [8] amounted to 7%; in assay [9], 8%; in [10] it was 2%. Besides, the binding result in assay [3] was “no binding”. Besides, the dissociation constant (Kd) in assay [11] was determined as 0.0242 µM. Moreover, in assay [11], the off-rate (koff) amounted to 0.0028 s⁻¹. Besides, in assay [11], the kon was 120000 M⁻¹ s⁻¹. The “t1/2” value in assay [11] was determined as 4.1 min.

B5: antibody 1347 (antibody, human IgG1, kappa, V domains shown)
VH: QVQLKESGPGLVAPSQSLSITCTVSGFSLTGHGVNWVRQPPGKGLEWLGMIWGDGSTDYNSTLKSRLSISKDNSKSQVFLKMNSLQTDDTARYYCARGYGYLYYFDYWGQGTTLTVSS
VL: ENVLTQSPAIMSASPGEKVTMTCRASSSVSSSYLHWYQQKSGASPKLWIYSTSNLASGVPARFSGSGSGTSYSLTVNSVETEDAATYYCHQYSGFPFTFGSGTKLELKR
notes: Chimeric IgG1 kappa
Take B5: the binding result in assay [12] was “no binding”. In assay [1], the “% inhibition” value worked out at 82%. Besides, in [3], the binding result was “binds”. Also, in assay [11], the dissociation constant (Kd) stood at 0.0214 µM, the koff was determined as 0.0005 s⁻¹, the kon was 24000 M⁻¹ s⁻¹ and the “t1/2” value came out at 22.9 min.

B6: antibody 1024 (antibody, human IgG1, kappa, V domains shown)
VH: QVQLQQPGAELVEPGGSVKLSCKASGYTFTSHWMHWVKQRPGQGLEWIGEINPSSGRNNYNEKFKSKATLTVDKSSSTAYMQFSSLTSEDSAVYYCVRYYGYDEAMDYWGQGTSVTVSS
VL: DIVMTQAAFSNPVTLGTSASISCRSSKSLLHSNGITYLYWYLQKPGQSPQLLIYQMSNLASGVPDRFSSSGSGTDFTLRISRVEAEDVGVYYCAQNLELPYTFGGGTKLEIKR
notes: Chimeric IgG1 kappa
B6: the “% inhibition” value was -3% in assay [1]; 78% in assay [2]; 3% in [4]; 75% in assay [5]; 11% in assay [6]; 12% in [7]. Moreover, the “% inhibition” value was 27% in assay [8], 18% in [9] and 11% in [10]. For the same molecule, the Kd in [11] came out at 0.0267 µM. Also, in assay [11], the koff amounted to 0.0049 s⁻¹. Further, the kon in assay [11] amounted to 180000 M⁻¹ s⁻¹. Further, the “t1/2” value in assay [11] turned out to be 2.4 min.

B7: antibody 992 (antibody, human IgG1, kappa, V domains shown)
VH: EVQLQQPGSELVRPGASVKLSCKASGYTFTSYWMHWVKQRPGQGLEWIGNIYPGSRSTNYDEKFKSKATLTVDTSSSTAYMQLSSLTSEDSAVYYCTRNGDYYVSSGDAMDYWGQGTSVTVSS
VL: DIQMTQTTSSLSASLGDRVTISCRTSQDIGNYLNWYQQKPDGTVKLLIYYTSRLHSGVPSRFSGSGSGTDFSLTINNVEQEDVATYFCQHYNTVPPTFGGGTKLEIKR
notes: Chimeric mouse/human IgG1 kappa; the VL entry includes the human kappa constant region
For the molecule B7, the “% inhibition” value is -9% in assay [1]; 98% in [2]; 78% in assay [4]; 77% in assay [5]; -21% in assay [6]; -3% in assay [7]. The figures for the “% inhibition” value in assay [8], in assay [9] and in [10] were -14%, -2% and -20%, respectively. Also, in assay [11], the “t1/2” value was 0.2 min.

For orientation: % inhibition means the change of the read-out against control, counted positive when it falls. By Kd is commonly meant the equilibrium constant for the complex coming apart. Broadly, the koff is a measure of how fast the partners let go of each other. As a reminder, the kon is the second-order rate constant of association.
